Results on one molecule are retold here after patent US20180371066A1 (C2N DIAGNOSTICS, published 2018).

The target in assay [1] is T1, recombinant human Tau-412 protein (human, UniProt P10636-7 1-412).
T1 construct: Analyte of the SPR study; also called human tau (1N4R, 412 amino acids)
The assay can be described thus: SPR Biacore T200, Protein A capture, mean of the VH1/VK2 runs. The procedure: (§1) Kinetic data was obtained at a flow rate of 40 μL/min to minimize any potential mass transfer effects. Two repeats of the blank (no antigen) and the 2.5 nM concentration of the analyte were programmed into the kinetic run in order to check the stability of both the surface and analyte over the kinetic cycles. For the initial kinetic runs, 2-fold dilutions of Tau-412 from 40 nM to 0.156 nM were run. For kinetic analysis and on subsequent runs, an analyte range of 20 nM to 0.625 nM was selected. This range covered multiple analyte concentrations both above and below the reported KD.
(§2) The association phase was monitored for 500 seconds to allow some of the higher concentrations of analyte to reach steady state. In order to observe a sufficient signal decrease (>10%) during the dissociation phase of the kinetic cycle, dissociation was measured for 1200 seconds. As discussed in Section 5, the Fcs were allowed to stabilize for 600 seconds after each regeneration step. The signal from the reference channel Fc1 was subtracted from that of Fc2, Fc3 and Fc4.
(§3) The kinetic parameters for the interaction of Tau-412 with the 7 mAbs as measured using the Protein A capture system on the Biacore T200 are shown in Table F-2. To correct for differences in the capture level of the antibody between each binding cycle, a local Rₘₐₓ parameter was used in the 1-to-1 binding model. Kinetic analysis was performed in three independent runs using fresh preparations of Tau-412 and antibody. Run 1 and runs 2+3 used different vials of the antigen Tau-412; therefore the reported errors associated with the mean response probably represent variation in preparation of the analyte and differences in assay set-up and run. From run 1 to runs 2+3, the amount of antibody injected was adjusted to try to get closer to the target 300 RU capture levels.
For orientation: SPR reads the build-up and loss of mass on a sensor chip optically.

The next assay concerns the target T2, PEP_2875806.
T2 peptide: GTYGLGDRKDQGGYT
In words: peptide array of 15-mers of human tau probed with the antibody; label LIN.

The target of another assay is T3, PEP_2875808.
T3 peptide: TYGLGDRKDQGGYTM
The assay is described as above.

The target in another assay is T4, PEP_2875810.
T4 peptide: YGLGDRKDQGGYTMH
The assay is described as above.

Another assay addresses T5, PEP_2875814.
T5 peptide: LGDRKDQGGYTMHQD
Described as above.

Another assay concerns the target T6, PEP_2875824.
T6 peptide: DQGGYTMHQDQEGDT
The assay is described as above.

Assay [2] addresses T1, recombinant human Tau-412 protein. The assay can be described thus: SPR Biacore T200, mAb captured on Protein A, Tau-412 analyte, 1-to-1 model, chip A11/1. The protocol:
as §1, §2, §3

Assay [3] shares this target. The assay can be described thus: SPR Biacore T200, mAb captured on Protein A, Tau-412 analyte, 1-to-1 model, chip A11/3. The protocol: as §1, §2, §3
The target in another assay is T7, rhesus monkey tau (rhesus monkey, UniProt P57786 2-60).
T7 construct: also called rhesus tau
T7 sequence: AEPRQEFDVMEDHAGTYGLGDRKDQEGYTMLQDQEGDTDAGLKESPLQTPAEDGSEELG
In words: direct ELISA on 96-well plates coated with tau at varied concentration; OD 650nm. The protocol:
FIG. 10 illustrates the binding results for different anti human tau antibodies to either human or rhesus monkey tau. Murine anti human tau antibodies HJ8.5 and HJ8.7 alongside humanized variant VH1/VK2 (also referred to as C₂N-8E12) were tested. […] In order to determine whether these amino acid difference between the two species of tau, impacts the ability of antibodies HJ8.5/C₂N-8E12 to bind the following experiment was performed. Binding of C₂N-8E12, HJ8.5 (murine precursor of C₂N-8E12), and HJ8.7 (murine anti-human tau antibody that binds to an epitope of tau where the human and rhesus amino acid sequence is 100% conserved) to human and rhesus tau by coating 96 well ELISA plates with either human or rhesus tau at various concentrations was measured. […] As expected, HJ8.7 binds to both human and rhesus tau.
On the technique in general: ELISA stands for enzyme-linked immunosorbent assay.

A further assay concerns the target T8, PEP_2875809.
T8 peptide: TYGLGDRKDAAGYTM
The assay can be described thus: peptide array of 15-mers of human tau probed with the antibody; label LIN.AA (double alanine).

Another assay deals with T9, PEP_2875811.
T9 peptide: YGLGDRKDQAAYTMH
Described as above.

In another assay the target is T10, PEP_2875817.
T10 peptide: GDRKDQGGYAAHQDQ
The description is as above.

A further assay addresses T11, PEP_2875819.
T11 peptide: DRKDQGGYTAAQDQE
Described as above.

The target of a further assay is T12, PEP_2875821.
T12 peptide: RKDQGGYTMAADQEG
The assay is described as above.

In the next assay the target is T13, PEP_2875823.
T13 peptide: KDQGGYTMHAAQEGD
The assay is described as above.

The target of the next assay is T14, PEP_2875825.
T14 peptide: DQGGYTMHQAAEGDT
The assay is described as above.

The target of another assay is T15, PEP_2875827.
T15 peptide: QGGYTMHQDAAGDTD
Described as above.

For the next assay, the target named is T16, human tau (human, UniProt P10636 2-60).
T16 construct: also called soluble human tau; human tau protein
T16 sequence (P10636 2-60 limits assumed): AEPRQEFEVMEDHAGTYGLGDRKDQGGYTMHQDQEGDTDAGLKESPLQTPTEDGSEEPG
In words: competition ELISA on plate-coated human tau against biotinylated HJ8.5; IC50 normalised to chimeric HJ8.5; column C2N Run 2.

T1 sequence (P10636 other isoform, or with tags, fused parts or gaps limits assumed): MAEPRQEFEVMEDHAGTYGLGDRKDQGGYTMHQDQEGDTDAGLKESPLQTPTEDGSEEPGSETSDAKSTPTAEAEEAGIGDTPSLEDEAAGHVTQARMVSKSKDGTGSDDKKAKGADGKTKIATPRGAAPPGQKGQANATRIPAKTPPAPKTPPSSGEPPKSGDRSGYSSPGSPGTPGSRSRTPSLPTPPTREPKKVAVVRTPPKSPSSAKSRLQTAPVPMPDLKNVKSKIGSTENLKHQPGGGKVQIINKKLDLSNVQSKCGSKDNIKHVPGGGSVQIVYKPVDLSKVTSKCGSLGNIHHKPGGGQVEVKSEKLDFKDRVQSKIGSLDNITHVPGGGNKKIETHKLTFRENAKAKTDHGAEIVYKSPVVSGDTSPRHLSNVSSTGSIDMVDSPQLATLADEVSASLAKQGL

B1: VH1/VK2 humanized anti-tau antibody (C2N-8E12) (antibody, human IgG4 S228P, kappa, V domains shown)
VH: EVKVVESGGGLVQPGGSMKLSCVVSGFTFSNYWVNWVRQAPGKGLEWVAQIRLKSDNYATHYEESVKGRFTISRDDSKSSVYLQMNNLRAEDSGIYYCTNWEDYWGQGTTVTVSS
VL: DIVLTQSPDSLAVSLGERATISCRASQSVSTSRYSYIHWYQQKPGQPPKLLIKYASNLESGVPSRFSGSGSGTDFTLNIHPLEPEDFATYYCHHSWEIPLTFGQGTKLEIKR
notes: Humanized recombinant IgG4 with S241P hinge mutation, human kappa light chain; also called C2N-8EI2
On to B1, for which the Kd in assay [1] amounted to 2.06 nM; in assay [2], 2.18 nM; in assay [3] it was 1.95 nM. For the same molecule, the koff in assay [1] amounted to 0.000621 s⁻¹; in assay [2] it was 0.000611 s⁻¹; in assay [3] it was 0.000632 s⁻¹. Moreover, the kon was determined as 302000 M⁻¹ s⁻¹ in assay [1], 280000 M⁻¹ s⁻¹ in assay [2] and 325000 M⁻¹ s⁻¹ in assay [3]. Further, the “Binding Signal” value with PEP_2875806 stood at 1710; with PEP_2875808, 2590; with PEP_2875810, 2670; with PEP_2875814 it was 2750; with PEP_2875824, 2650; in the assay with PEP_2875809, 2760. Besides, the “Binding Signal” value was 1880 with PEP_2875811; 661 with PEP_2875817; 2580 with PEP_2875819; 2790 in the assay with PEP_2875821; 2710 in the assay with PEP_2875823; 2580 in the assay with PEP_2875825. The “Binding Signal” value in the assay with PEP_2875827 is 636. In the assay with rhesus monkey tau, the binding result was “no binding”. For the same molecule, the “IC50 (Relative to Chimera)” value in the assay with human tau is 0.91 relative to Chimera.

Usually Kd stands for the constant that tells how readily two partners part at equilibrium. One may read the koff as the first-order rate constant of dissociation. Broadly, the kon is the second-order rate constant of association.
